Tests used:
[1] = molecular target: A/Solomon Islands/3/2006 (H1N1) hemagglutinin ectodomain (influenza A virus A/Solomon Islands/3/2006 (H1N1)); assay: negative-stain EM, single-particle 3D reconstruction
[2] = molecular target: A/Perth/16/2009 (H3N2) hemagglutinin ectodomain (influenza A virus A/Perth/16/2009 (H3N2)); assay: as above
[3] = molecular target: A/Brisbane/10/2007 (H3N2) hemagglutinin ectodomain (influenza A virus A/Brisbane/10/2007 (H3N2)); assay: BLI
[4] = molecular target: A/Panama/2007/1999 (H3N2) hemagglutinin ectodomain (influenza A virus A/Panama/2007/1999 (H3N2)); assay: BLI
[5] = molecular target: A/Perth/16/2009 (H3N2) hemagglutinin ectodomain (influenza A virus A/Perth/16/2009 (H3N2)); assay: BLI
[6] = molecular target: A/Brisbane/10/2007 (H3N2) hemagglutinin ectodomain (influenza A virus A/Brisbane/10/2007 (H3N2)); assay: ITC
[7] = molecular target: A/Panama/2007/1999 (H3N2) hemagglutinin ectodomain (influenza A virus A/Panama/2007/1999 (H3N2)); assay: ITC
[8] = molecular target: A/Perth/16/2009 (H3N2) hemagglutinin ectodomain (influenza A virus A/Perth/16/2009 (H3N2)); assay: ITC
[9] = molecular target: A/Texas/36/1991 (H1N1) hemagglutinin ectodomain (influenza A virus A/Texas/36/1991 (H1N1))

C05 Fab (Lys-C digestion of IgG) showed a stoichiometry N [1] of 3 and a stoichiometry N [2] of 3.
Substance “C05 Fab (recombinant, for binding studies)” has a Kd [3] of over 5000 nM, a Kd [4] of 720 nM and a Kd [5] of 18 nM. The Kd [6] was 10000 nM, the Kd [7] was 225 nM and the Kd [8] was 26 nM.
C05 IgG (antibody) was tested, and the MIC, hemagglutination inhibition (HAI) [9] was over 100 µg/mL.
